# In paper PMC6429771, “Identification of new glutamate decarboxylases from Streptomyces for efficient production of γ-aminobutyric acid in engineered Escherichia coli” (Journal of Biological Engineering, 2019):
# B1: StGAD (Streptomyces toxytricini) (protein)
# chain: MALHKTKDVTGGDTGTDVFTTALSGRVLPKYRMPEEHSPSEAVYALLRNELLLDGNAAQNLATFCTTWSDDGVHRLMNECLDKNMVDKDEYPQTAEIEARCVNILAHLWHAPAEDGPATGCSTTGSSEAAMLGGLALKWRWRARRRAQGLPADRPNLVCGPVQVCWEKFARYFDVELRQIPLEEDATGLRPHQLAEYVDENTIGVVAILGVTYTCDYEPVADIAAALDAIQQEHGWDVPIHVDGASGGLVAPFLHPDVVWDFALPRVASINTSGHKYGLAPLGVGWVVWRTADLLPPELVFDVDYLGGDMPTFALNFSRPGGEAIAQYYLFLRLGRSGYRSVHQSCADTARFLAGEIAAMGPFTLLYDGQGALPAVSYRLTDPAAAGFTLYDLSDRLRMRGWQVPAYPLPARRDDTVIQRVLIRHGVTLDQIALLAEDMRRALDHLRAAPPTQPPTAPRSGFHH
# notes: full-length ORF (1395 bp, about 464 residues, 53 kDa) in pET28a (NdeI/HindIII), His6-tagged, expressed in E. coli BL21(DE3), Ni-NTA purified
# B2: ScGAD (Streptomyces chromofuscus) (protein)
# chain: MPLHQGADRAADIPEEDRAELRRLSLNPFYGEADPVSEMTSAPPTQRLPEGPTPPHTAYQLVHDELMLDGNSRLNLATFVTTWMEPQAGVLMAECQDKNMIDKDEYPRTAELERRCVAMLADLWNAPDPATAVGCSTTGSSEACMLAGLALKRRWAKRNAARYPATARPNLVMGVNVQVCWEKFCTFWEVEARLVPMEGDRFHLDPQAAADLCDEDTIGVVAVLGSTFDGSYEPVAELCAVLDALQERTGLDVPVHVDGASGAMIAPFLDEDLVWDFRLPRVSSINTSGHKYGLVYPGVGWALWRSPAELPEELVFRVNYLGGDMPTFALNFSRPGAQVVAQYYTFLRLGRDGYRAVQQTARDIATTLSARIERLGGFRLLTRGDQLPVFAFTTASDVTNFDVFDVSRRLREHGWLVPAYTFPAHREDLSVLRVVCRNGFSADLAAMLVADLKRVLPELRAQERPMDRDPSAATAFHH
# B3: GadB (Escherichia coli K-12) (protein)
# chain: MDKKQVTDLRSELLDSRFGAKSISTIAESKRFPLHEMRDDVAFQIINDELYLDGNARQNLATFCQTWDDENVHKLMDLSINKNWIDKEEYPQSAAIDLRCVNMVADLWHAPAPKNGQAVGTNTIGSSEACMLGGMAMKWRWRKRMEAAGKPTDKPNLVCGPVQICWHKFARYWDVELREIPMRPGQLFMDPKRMIEACDENTIGVVPTFGVTYTGNYEFPQPLHDALDKFQADTGIDIDMHIDAASGGFLAPFVAPDIVWDFRLPRVKSISASGHKFGLAPLGCGWVIWRDEEALPQELVFNVDYLGGQIGTFAINFSRPAGQVIAQYYEFLRLGREGYTKVQNASYQVAAYLADEIAKLGPYEFICTGRPDEGIPAVCFKLKDGEDPGYTLYDLSERLRLRGWQVPAFTLGGEATDIVVMRIMCRRGFEMDFAELLLEDYKASLKYLSDHPKLQGIAQQNSFKHT
# Columns and labels:
# Experiment in all cases: GABA formation by Berthelot reaction, A630, Lineweaver-Burk plot
# [1] = substrate: N[C@@H](CCC(=O)O)C(=O)O; type: biochemical, Streptomyces toxytricini; details: 0.01 mM PLP, 200 mM Na2HPO4-citric acid buffer pH 5.2, 37 °C, 5-100 mM MSG
# Description: GABA formation by Berthelot reaction, A630, Lineweaver-Burk plot on StGAD
# [2] = substrate: N[C@@H](CCC(=O)O)C(=O)O; type: biochemical, Streptomyces chromofuscus; details: 0.01 mM PLP, 200 mM Na2HPO4-citric acid buffer pH 4.2, 37 °C, 5-100 mM MSG
# Description: GABA formation by Berthelot reaction, A630, Lineweaver-Burk plot on ScGAD
# [3] = substrate: N[C@@H](CCC(=O)O)C(=O)O; type: biochemical, Escherichia coli; details: 0.01 mM PLP, 200 mM Na2HPO4-citric acid buffer pH 4.0, 37 °C, 5-100 mM MSG
# Description: GABA formation by Berthelot reaction, A630, Lineweaver-Burk plot on GadB
protein,measurement,setting,value
B1,Km,[1],7.67 ± 0.55 mM
same,Vmax,[1],0.226 ± 0.01 µmol/min/mg
same,kcat,[1],0.2 ± 0.02 s⁻¹
same,kcat/Km,[1],26 ± 3 M⁻¹ s⁻¹
B2,Km,[2],23.25 ± 2.07 mM
same,Vmax,[2],29.9 ± 2.16 µmol/min/mg
same,kcat,[2],28.1 ± 1.99 s⁻¹
same,kcat/Km,[2],1210 ± 90 M⁻¹ s⁻¹
B3,Km,[3],35.83 ± 2.40 mM
same,Vmax,[3],12.5 ± 0.72 µmol/min/mg
same,kcat,[3],11 ± 0.88 s⁻¹
same,kcat/Km,[3],310 ± 20 M⁻¹ s⁻¹
